Reference: publication PMC2531280

Substrate: NCCc1c[nH]cn1
Experiment: purified protein
Assay type: biochemical, Pimelobacter simplex

B1: histamine dehydrogenase (HADH) (Pimelobacter simplex) (protein)
chain: MTEQPAVAAPYDVLFEPVQIGPFTTKNRFYQVPHCNGMGYRDPSAQASMRKIKAEGGWSAVCTEQVEIHATSDIAPFIELRIWDDQDLPALKRIADAIHEGGGLAGIELAHNGMNAPNQLSRETPLGPGHLPVAPDTIAPIQARAMTKQDIDDLRRWHRNAVRRSIEAGYDIVYVYGAHGYSGVHHFLSKRYNQRTDEYGGSLENRMRLLRELLEDTLDECAGRAAVACRITVEEEIDGGITREDIEGVLRELGELPDLWDFAMGSWEGDSVTSRFAPEGRQEEFVAGLKKLTTKPVVGVGRFTSPDAMVRQIKAGILDLIGAARPSIADPFLPNKIRDGRLNLIRECIGCNICVSGDLTMSPIRCTQNPSMGEEWRRGWHPERIRAKESDARVLVVGAGPSGLEAARALGVRGYDVVLAEAGRDLGGRVTQESALPGLSAWGRVKEYREAVLAELPNVEIYRESPMTGDDIVEFGFEHVITATGATWRTDGVARFHTTALPIAEGMQVLGPDDLFAGRLPDGKKVVVYDDDHYYLGGVVAELLAQKGYEVSIVTPGAQVSSWTNNTFEVNRIQRRLIENGVARVTDHAVVAVGAGGVTVRDTYASIERELECDTVVMVTARLPREELYLDLVARRDAGEIASVRGIGDAWAPGTIAAAVWSGRRAAEEFDAVLPSNDEVPFRREVTQLA
**Q.** Which Km does the source give for B1 here?
**A.** 24 µM

**Q.** What about the kcat of the same protein?
**A.** 9.8 s⁻¹
